Details: Halorhodospira halophila, Thermal, DSC, reversible: yes, whole UniProt chain shown

B1: High-potential iron-sulfur protein isozyme 1 wild type, P04168 (protein)
chain: EPRAEDGHAHDYVNEAADASGHPRYQEGQLCENCAFWGEAVQDGWGRCTHPDFDEVLVKAEGWCSVYAPAS
Tm (pH 7, MOPS 20 mM): 67.7 °C
Tm (pH 9, TAPS 20 mM): 66.4 °C
Tm (pH 10, CAPS 20 mM): 66.5 °C
Tm (pH 11, piperidine 40 mM): 50.3 °C

From FireProtDB (doi:10.1002/pro.5560041213)
